The values that follow come from patent EP1327681A1.

For assay [1], the target named is human TPO receptor (MPL) expressed on Ba/F3 cells (human) (UniProt P40238). Nature of the assay: cell-based or functional assay.
Assay [2] shares this target. As to the kind of experiment: cell-based or functional assay. This is another data set of the same source.

“human TPO (R&D Systems) (from UniProt P40225 22-353) (ligand)” had an ED50, proliferation of BaF/mpl cells (WST-8) in assay [1] of 0.027 nM.

B1: antibody 12B5 (IgG) (antibody, from another filing)
scFv: QVQLVQSGGGLVRPGGSLSLSCAVSGITLRTYGMHWVRQAPGKGLEWVAGISFDGRSEYYADSVQGRFTISRDSSKNTLYLQMNSLRAEDTAVYYCARGAHYGFDIWGQGTMVTVSSGGGGTGGGGSGGGGSDIQMTQSPSTLSASIGDRVTITCRASEGIYHWLAWYQQKPGKAPKLLIYKASSLASGAPSRFSGSGSGTDFTLTISSLQPDDFATYYCQQYSNYPLTFGGGTKLEIK
In assay [2], B1 came in with an ED50, TPO-like agonist activity, proliferation of BaF/mpl cells (WST-8) of 29 nM.
